Laboratory results: patent US20250170175A1 (OSLO UNIVERSITETSSYKEHUS HF, published 2025)
Each block holds one binder with its values, some of them ahead of it.

Experiments:
[1] = molecular target: HLA-A2 presenting TdT peptide-3 (…) on target cells (human); experiment: cell-based or functional assay
[2] = molecular target: T1, human terminal deoxynucleotidyl transferase (TdT) peptide on HLA-A*02:01 (human); experiment: cytokine release
T1 peptide: ALYDKTKRI

[3] = molecular target: T2, human terminal deoxynucleotidyl transferase (TdT) peptide on HLA-A*02:01 (human); experiment: multimer staining
T2 peptide: ALYDKTKRIFL

[4] = molecular target: HLA-A2 presenting TdT peptide-1 (…) on target cells (human); experiment: cell-based or functional assay
[5] = molecular target: T1, human terminal deoxynucleotidyl …; experiment: multimer staining

EC50 of activation of T3 cells following co-incubation with peptide-pulsed T2 lymphoblast cells [1]: 1.2 nM
B1: T3 TCR (TCR, V domains shown)
V domain 1: SQQGEEDPQALSIQEGENATMNCSYKTSINNLQWYRQNSGRGLVHLILIRSNEREKHSGRLRVTLDTSKKSSSLLITASRAADTASYFCATDAGAYSGGGADGLTFGKGTHLIIQP
V domain 2: EAQVTQNPRYLITVTGKKLTVTCSQNMNHEYMSWYRQDPGLGLRQIYYSMNVEVTDKGDVPEGYKVSRKEKRNFPLILESPSPNQTSLYFCASSLSSSYNEQFFGPGTRLTVLE

binding result [2]: no recognition | binding result [3]: recognises
B2: T3 TCR (TCR, V domains shown)
Valpha: SQQGEEDPQALSIQEGENATMNCSYKTSINNLQWYRQNSGRGLVHLILIRSNEREKHSGRLRVTLDTSKKSSSLLITASRAADTASYFCATDAGAYSGGGADGLTFGKGTHLIIQP
Vbeta: EAQVTQNPRYLITVTGKKLTVTCSQNMNHEYMSWYRQDPGLGLRQIYYSMNVEVTDKGDVPEGYKVSRKEKRNFPLILESPSPNQTSLYFCASSLSSSYNEQFFGPGTRLTVL

EC50 of activation of T1 cells following co-incubation with peptide-pulsed T2 lymphoblast cells [4]: 5.8 nM
B3: T1 TCR (TCR, V domains shown)
V domain 1: EDQVTQSPEALRLQEGESSSLNCSYTVSGLRGLFWYRQDPGKGPEFLFTLYSAGEEKEKERLKATLTKKESFLHITAPKPEDSATYLCAVQASSNSGYALNFGKGTSLLVTP
V domain 2: SAVISQKPSRDICQRGTSLTIQCQVDSQVTMMFWYRQQPGQSLTLIATANQGSEATYESGFVIDKFPISRPNLTFSTLTVSNMSPEDSSIYLCSVEPGYADTQYFGPGTRLTVLE

binding result [5]: recognises
B4: T1 TCR (TCR, V domains shown)
Valpha: EDQVTQSPEALRLQEGESSSLNCSYTVSGLRGLFWYRQDPGKGPEFLFTLYSAGEEKEKERLKATLTKKESFLHITAPKPEDSATYLCAVQASSNSGYALNFGKGTSLLVTP
Vbeta: SAVISQKPSRDICQRGTSLTIQCQVDSQVTMMFWYRQQPGQSLTLIATANQGSEATYESGFVIDKFPISRPNLTFSTLTVSNMSPEDSSIYLCSVEPGYADTQYFGPGTRLTVL
